Experiment [1] has as its target T1, Mouse CD93 on cells (mouse CD93 expressing CHO cells; mouse CD93 expressing HEK cells) (mouse, UniProt O89103 23-644).
T1 construct: whole, on cells; also called mCD93 HEK; CD93-HEK cells
T1 sequence (looked up): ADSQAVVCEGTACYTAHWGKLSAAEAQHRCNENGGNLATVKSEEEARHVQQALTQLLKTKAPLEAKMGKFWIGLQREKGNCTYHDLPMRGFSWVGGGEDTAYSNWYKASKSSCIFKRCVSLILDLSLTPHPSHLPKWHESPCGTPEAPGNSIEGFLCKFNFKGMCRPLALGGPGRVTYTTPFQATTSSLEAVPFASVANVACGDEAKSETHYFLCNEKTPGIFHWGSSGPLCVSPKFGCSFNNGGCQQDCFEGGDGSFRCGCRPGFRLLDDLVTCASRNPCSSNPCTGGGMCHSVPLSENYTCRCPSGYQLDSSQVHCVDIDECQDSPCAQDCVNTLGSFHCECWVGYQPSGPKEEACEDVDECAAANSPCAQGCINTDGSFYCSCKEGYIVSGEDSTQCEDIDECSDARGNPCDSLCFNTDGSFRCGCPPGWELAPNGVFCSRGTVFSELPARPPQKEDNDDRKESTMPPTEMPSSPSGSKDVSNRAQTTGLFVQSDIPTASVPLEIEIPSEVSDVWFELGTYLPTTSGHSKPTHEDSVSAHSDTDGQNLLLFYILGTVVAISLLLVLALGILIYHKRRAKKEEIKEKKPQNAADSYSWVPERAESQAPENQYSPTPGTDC
The experiment can be described thus: summary table; method and form of mouse CD93 not given.

In experiment [2] the target is T2, Human CD93 recombinant protein (Sino Biological Inc, Catalog #12589-H08H) (human, UniProt Q9NPY3 22-580).
T2 construct: Biotinylated (EZ-LINK NHS-PEG4 biotin) in the BLI assays; also called hCD93; His-tagged human CD93
T2 sequence (looked up): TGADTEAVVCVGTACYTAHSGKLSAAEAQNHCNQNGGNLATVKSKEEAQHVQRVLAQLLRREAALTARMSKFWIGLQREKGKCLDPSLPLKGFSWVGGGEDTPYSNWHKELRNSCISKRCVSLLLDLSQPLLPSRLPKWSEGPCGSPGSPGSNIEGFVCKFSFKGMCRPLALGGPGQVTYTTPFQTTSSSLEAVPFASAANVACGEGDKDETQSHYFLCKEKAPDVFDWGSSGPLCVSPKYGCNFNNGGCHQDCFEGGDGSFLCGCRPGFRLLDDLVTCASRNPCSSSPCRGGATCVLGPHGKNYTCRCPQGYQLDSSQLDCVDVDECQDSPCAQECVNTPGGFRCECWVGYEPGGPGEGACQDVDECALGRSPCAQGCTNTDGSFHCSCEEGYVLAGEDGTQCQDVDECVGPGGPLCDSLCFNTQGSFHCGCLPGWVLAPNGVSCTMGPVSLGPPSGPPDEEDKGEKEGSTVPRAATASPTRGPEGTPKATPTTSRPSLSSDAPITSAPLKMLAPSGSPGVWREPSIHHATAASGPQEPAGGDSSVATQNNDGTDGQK
The experiment can be described thus: summary table, column Octet (hCD93).

In experiment [3] the target is T2, Human CD93 recombinant protein (Sino …). The experiment is described as follows: summary table, column ELISA (hCD93). For orientation: ELISA stands for enzyme-linked immunosorbent assay.
Experiment [4] addresses T3, Human CD93 on cells (human CD93 expressing CHO cells; HUVEC, U937 and KG1a cells) (human, UniProt Q9NPY3 22-652).
T3 construct: whole, on cells; also called hCD93 expressing CHO cells; hCD93 CHO cells
T3 sequence (looked up): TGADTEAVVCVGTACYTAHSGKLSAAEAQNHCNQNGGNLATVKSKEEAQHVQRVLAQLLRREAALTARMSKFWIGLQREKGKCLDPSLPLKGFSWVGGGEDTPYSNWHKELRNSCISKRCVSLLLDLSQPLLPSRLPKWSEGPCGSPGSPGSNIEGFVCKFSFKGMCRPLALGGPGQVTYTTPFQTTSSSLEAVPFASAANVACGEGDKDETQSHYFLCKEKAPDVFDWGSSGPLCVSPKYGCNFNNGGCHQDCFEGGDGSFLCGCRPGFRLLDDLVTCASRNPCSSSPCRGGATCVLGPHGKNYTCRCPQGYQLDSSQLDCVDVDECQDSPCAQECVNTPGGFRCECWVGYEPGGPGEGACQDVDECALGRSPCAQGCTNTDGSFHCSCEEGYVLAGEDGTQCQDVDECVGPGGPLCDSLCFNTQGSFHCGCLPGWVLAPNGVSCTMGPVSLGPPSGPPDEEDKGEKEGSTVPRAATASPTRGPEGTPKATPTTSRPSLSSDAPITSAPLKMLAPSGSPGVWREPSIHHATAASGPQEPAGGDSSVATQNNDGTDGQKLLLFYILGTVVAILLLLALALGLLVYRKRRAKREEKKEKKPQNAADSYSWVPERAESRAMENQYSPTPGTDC
The experiment is described as follows: summary table, column FACS (HUVEC cells).

For experiment [5], the target named is T3, Human CD93 on cells (human CD93 …). The experiment is described as follows: summary table, column FACS (CHO-hCD93 cells).
Experiment [6] addresses T2, Human CD93 recombinant protein (Sino …). The experiment is described as follows: ELISA, hCD93-His coated, OD450. The method, then: His-tagged human CD93 was coated onto a 96 well plate at 1 μg/mL in 1×PBS overnight at 4° C. The plate was washed with ELISA wash buffer (Boston BioProduct, Inc.) and the wells were blocked with ELISA blocking buffer for 1 hour at 37° C. Purified antibodies were serially diluted in ELISA blocking buffer (Boston BioProduct, Inc.) and incubated on the receptor for 1 hour at 37° C. The plate was washed with ELISA wash Buffer. […] The plate was washed with ELISA wash buffer. HRP substrate was added for indirect detection of the antibodies binding to CD93.

The target of experiment [7] is T3, Human CD93 on cells (human CD93 …). The experiment is described as follows: flow cytometry blocking assay, CHO-hCD93 cells, antibody 50 ug/ml then MMRN2 0.1 ug/ml, APC-A. The protocol: (§1) After incubation, the cells were washed with FACS buffer and incubated with anti-His conjugated APC or streptavidin conjugated APC at a ratio of 1:500 for 30 minutes at 4° C. After washing with FACS buffer twice, the samples were analyzed and data acquired in NovoCyte Flow.
For orientation: A flow cytometer gives signals particle by particle.

Experiment [8] has the same target. The experiment can be described thus: flow cytometry, CHO-hCD93 cells, APC-A.
For experiment [9], the target named is T2, Human CD93 recombinant protein (Sino …). The experiment can be described thus: BLI (Octet), human CD93; sheet prints Anti-Penta-HIS(HIS1K) biosensor.
The target of experiment [10] is T3, Human CD93 on cells (human CD93 …). The experiment can be described thus: flow cytometry blocking assay, CHO-hCD93 cells, antibody 50 ug/ml then MMRN2 0.5 ug/ml, APC-A. The method, then: as §1
The target of experiment [11] is T2, Human CD93 recombinant protein (Sino …). The experiment can be described thus: ELISA, His-tagged human CD93 coated, OD450. The protocol:
His-tagged human CD93 was coated onto a 96 well plate at 1 μg/mL in 1×PBS overnight at 4° C. The plate was washed with ELISA wash buffer (Boston BioProduct, Inc.) and the wells were blocked with ELISA blocking buffer for 1 hour at 37° C. […] The plate was washed with ELISA wash Buffer. […] The plate was washed with ELISA wash Buffer. HRP substrate was added for indirect detection of the antibodies binding to CD93.

The target in experiment [12] is T3, Human CD93 on cells (human CD93 …). The experiment is described as follows: flow cytometry, CHO cells overexpressing human CD93, antibody 0.01ug, mIgG1 as control, APC-A.
Experiment [13] shares this target. The experiment can be described thus: flow cytometry titration on KG1a cells; column head printed kd, unit from the axis log (concentration (M)).
Experiment [14] has the same target. The experiment is described as follows: flow cytometry titration on U937 cells; column head printed kd, unit from the axis log (concentration (M)).
The target of experiment [15] is T2, Human CD93 recombinant protein (Sino …). The experiment is described as follows: ELISA, His-tagged human CD93 coated, OD450. The method, then:
His-tagged human CD93 was coated onto a 96 well plate at 1 μg/mL in 1×PBS overnight at 4° C. The plate was washed with ELISA wash buffer (Boston BioProduct, Inc.) and the wells were blocked with ELISA blocking buffer for 1 hour at 37° C. […] The plate was washed with ELISA wash Buffer. HRP-conjugated anti-human Fc antibody was incubated for 1 hour at 37° C. The plate was washed with ELISA wash Buffer. HRP substrate was added for indirect detection of the antibodies binding to CD93.
The source holds these as a separate data set.

Experiment [16] has the same target. The experiment is described as follows: BLI (Octet QKe), biotinylated human CD93 on streptavidin biosensors. The protocol:
The binding affinity of anti-CD93 antibodies was determined with bio-layer interferometry using Octet QKe (Fortebio). […] Human CD93 recombinant protein (Sino Biological Inc, Catalog #12589-H08H) was biotinylated using EZ-LINK NHS-PEG4 biotin (Thermo Fisher Scientific). Streptavidin biosensors (Fortebio) were used to load biotinylated CD93 protein (300 seconds in 5 μg/ml). Baseline was stabilized for 60 seconds in 1×kinetics buffer (Fortebio) before anti-CD93 antibodies, at a serial dilution, were allowed to associate for 300 seconds with captured protein. Then the sensors were dissociated in 1× kinetics buffer for 600 seconds. […] (FIG. 41).
In general terms: Biolayer interferometry detects binding as a change in optical thickness at a sensor tip.

Experiment [17] addresses T3, Human CD93 on cells (human CD93 …). The experiment is described as follows: flow cytometry on human CD93 expressing CHO cells. The protocol: Human CD93 expressing CHO cells were detached by incubation with TrypLE reagents (Thermo Fisher), which preserves the integrity of CD93 on the cell surface. Then the cells were incubated with serially diluted anti-CD93 antibodies for 30 minutes in 4° C. After washing by FACS buffer, the cells were incubated with Alexa Fluor 647 conjugated anti-human IgG (Jackson ImmunoResearch) for 30 minutes in 4° C. After washing by FACS buffer twice, the samples were acquired in NovoCyte Flow Cytometer and analyzed by NovoExpress software.

Where “and” joins values, the source holds several entries; their conditions need not be identical. Equal entries are not always repeated.

B1: 7F3 (hybridoma) (antibody, IgG1, V domains shown)
VH: QVQLQQSGADLVRPGASVKLSCKASGYTFTDYEMHWVKQTPVYGLEWIGGIDPETGDTAYNQNFKGKATLTADKSSSAAYMELRSLTSEDSAVYYCTNYGNLYYYAMDYWGQGTSVTVSS
VL: ENVLTQSPAIMSASPGEKVTMTCRASSSVSSSYLHWYQQKSGASPKLWIYSTSNLAFGVPARFSGSGSGTSYSLTISSVEAEDAATYYCQQYSGYPLTFGSGTKLEIK
notes: also called 7F3 mAb; 7F3 mIgG1
As usually defined, the Kd is the constant that tells how readily two partners part at equilibrium. In general, EC50 refers to the concentration at which the effect is half-maximal. For orientation: koff means a measure of how fast the partners let go of each other. What is called kon is the rate constant with which the complex forms. As to B1, in experiment [1], the binding result is given as “no binding”. Besides, the results for the dissociation constant Kd in [2] and in [9] were 0.493 nM and 1.26 nM, respectively. Moreover, the EC50 in experiment [3] turned out to be 0.0667 nM; in experiment [4], 2.94 nM; in experiment [5] it was 0.21 nM; in [6] it was 0.0667 nM. Moreover, the “M3 gate, % of cells positive for MMRN2 after the antibody” value turned out to be 12.2% in experiment [7] and 9.93% in experiment [10]. Also, the “M3 gate, % of cells” value in experiment [8] is 96.3%. In experiment [9], the koff was 0.000478 s⁻¹. In addition, in [9], the kon came out at 381000 M⁻¹ s⁻¹.

B2: humanized 17B10 (VH3VL3, i.e., H3L3) with a chimeric Fc containing mouse IgG1 CH2 and CH3 domains and human CH1 domains (antibody, V domains shown)
VH: QVQLVQSGPEVKKPGESLKISCKASGYAFSSYWLNWVRQMPGKGLEWMGRIYPGDGDTDYNGKFKGQVTISADKSSGTAYLQLSSLKASDTAVYFCVRGDGYWAMDYWGQGTLVTVSS
VL: DIVMTQSPDSLAVSLGERATINCRFSKSLLHSNGITYLYWYQQKPGQPPKLLIYQMSNLASGVPDRFSGSGSGTDFTLTISSLQAEDVAVYYCAQNLELPWTFGGGTKLEIK
notes: Human CH1, mouse IgG1 CH2 and CH3; also called h17B10-H3L3; humanized 17B10-mFc
On to B2, for which the 50% effective concentration (EC50) in experiment [11] came out at 0.213 nM. Further, the “M2 gate, % of cells” value in experiment [12] turned out to be 93%. Further, the Kd in experiment [13] was 0.0772 nM and 0.0952 nM; in experiment [14] it was 0.104 nM and 0.0944 nM.

B3: 16E4-hIgG1 (recombinant chimeric 16E4) (antibody, V domains shown)
VH: QVQLQQPGAELVKPGASVKLSCKASGYTFTSYWMHWVKQRPGQGLEWIGEIDPSASYTYYNQKFKGKATLTVDKSSSTAYMQLSSLTSEDSAVYYCARSVYYGNKYFDVWGAGTTVTVSS
VL: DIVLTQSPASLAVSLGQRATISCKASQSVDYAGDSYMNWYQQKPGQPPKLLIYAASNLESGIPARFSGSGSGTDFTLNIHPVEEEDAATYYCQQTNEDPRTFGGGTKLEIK
notes: the same paragraph once calls it 'humanized'; also called recombinant 16E4
For B3, the Kd in experiment [2] and in experiment [16] was 0.135 nM each time. Moreover, the EC50 in experiment [3] was 0.041 nM; in experiment [15] it was 0.041 nM; in experiment [6], 0.022 nM; in [17] it was 0.24 nM. The off-rate (koff) in experiment [16] stood at 2.93e-05 s⁻¹. Besides, the on-rate (kon) in experiment [16] was found to be 217000 M⁻¹ s⁻¹.

The record behind these values is patent US20230365705A1 (DYNAMICURE BIOTECHNOLOGY, published 2023).
